From patent publication US20260055205A1 (published 2026) come the findings set out here.

Assay [1] has as its target T1, human PSMA-Fc (human, UniProt Q04609 44-750).
T1 construct: also called Human PSMA-Fc fusion
Briefly: Octet, PSMA-Fc. As to the method: Binding affinity of select PSMA PTE variants was tested by Octet.

The target in assay [2] is T1, human PSMA-Fc. Put plainly: Octet. On the technique in general: In BLI a coated tip is dipped into the sample, and binding shifts an interference pattern.
The target in another assay is T2, cyCD3e-Fc (cynomolgus monkey, UniProt Q95LI5 22-117).
T2 sequence (looked up): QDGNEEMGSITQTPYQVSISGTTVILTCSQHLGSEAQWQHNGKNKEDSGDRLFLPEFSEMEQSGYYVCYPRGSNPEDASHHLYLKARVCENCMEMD
Put plainly: Octet, purified. How it is done: (§1) Pool 2 consisted of paTCE molecules each containing PSMA.262 and one of 64 CD3.23 mutation combination variants. Stability and affinity of the individually expressed molecules in the form of crude lysate was evaluated by Octet. […] The binding of these anti-CD3 molecules (CD3.227, CD3.228, CD3.229 and CD3.230) to human and cynomolgus CD3 was measured by Octet and the Tm was measured by Differential Scanning Fluorimetry. All variants were paired with PSMA.262 except for CD3.23 which was paired with PSMA.5.

The target of another assay is huCD3e-Fc (human, UniProt P07766 23-126). Briefly: Octet, purified. As to the method:
as §1

Another assay has as its target T3, human CD3 epsilon (human, UniProt P07766 23-126, limits assumed).
T3 construct: also called huCD3e
Briefly: Octet, crude lysate. Put shortly:
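Octet binding of the anti-CD3 paTCE molecules was measured to cynomolgus CD3e-Fc with purified material and to human CD3 epsilon with crude lysate. Every variant carried PSMA.262 except CD3.23, which carried PSMA.5.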

Assay [3] concerns the target T4, human PSMA (human, UniProt Q04609 44-750, limits assumed).
T4 construct: also called huPSMA; hPSMA
Briefly: binding screen.

Assay [4] deals with T4, human PSMA. Briefly: binding kinetics, uTCE.

Usually Kd stands for the free concentration of one partner at which half of the binding sites on the other are occupied at equilibrium, for simple one-to-one binding. By koff is commonly meant the first-order rate constant of dissociation. For orientation: kon means the second-order rate constant of association.

Where a chain is given by its changes, count along the chain named.

T1 sequence (Q04609 44-750 limits assumed): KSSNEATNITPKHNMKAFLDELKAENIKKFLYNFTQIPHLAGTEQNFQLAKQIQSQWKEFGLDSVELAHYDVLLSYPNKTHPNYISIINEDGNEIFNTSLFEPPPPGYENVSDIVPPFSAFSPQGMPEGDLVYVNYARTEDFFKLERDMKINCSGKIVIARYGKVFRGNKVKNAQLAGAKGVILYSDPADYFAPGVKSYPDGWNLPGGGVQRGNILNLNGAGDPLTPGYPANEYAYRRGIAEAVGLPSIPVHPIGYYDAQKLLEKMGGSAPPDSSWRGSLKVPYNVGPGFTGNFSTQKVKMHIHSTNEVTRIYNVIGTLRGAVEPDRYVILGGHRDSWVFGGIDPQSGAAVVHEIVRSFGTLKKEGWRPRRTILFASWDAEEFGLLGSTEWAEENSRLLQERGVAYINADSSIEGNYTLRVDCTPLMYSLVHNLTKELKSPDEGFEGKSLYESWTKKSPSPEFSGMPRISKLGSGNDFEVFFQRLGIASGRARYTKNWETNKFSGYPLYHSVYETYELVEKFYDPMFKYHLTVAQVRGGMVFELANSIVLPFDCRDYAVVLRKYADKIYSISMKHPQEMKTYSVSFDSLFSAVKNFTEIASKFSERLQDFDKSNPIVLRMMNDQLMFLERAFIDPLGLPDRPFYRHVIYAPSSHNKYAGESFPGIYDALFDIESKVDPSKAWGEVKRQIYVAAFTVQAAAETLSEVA
T4 sequence (Q04609 44-750 limits assumed): as above
Sequence of huCD3e-Fc (P07766 23-126): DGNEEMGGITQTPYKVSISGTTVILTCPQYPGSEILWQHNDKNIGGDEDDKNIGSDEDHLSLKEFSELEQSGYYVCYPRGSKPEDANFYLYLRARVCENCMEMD
T3 sequence (P07766 23-126 limits assumed): as the sequence (P07766 23-126) above

B1: PSMA.6 (uTCE of AC2728) (bispecific antibody, V domains shown)
VH: EVQLVESGGGVVQPGRSLRLSCAASGRTFGIYVMGWVRQAPGKEREFVAAISWSGSNRLVSDSVKGRFTISRDNSKNTLYLQMNSLRAEDTAVYFCAASNRLYGRTWYDFNESDYWGQGTTVTVSS
notes: TCE with CD3.23; also called VHH14
In the assay with human PSMA-Fc [1], B1 returned a Kd of 2.3 nM, a koff of 0.000235 s⁻¹ and a kon of 96300 M⁻¹ s⁻¹. For the same molecule, in the assay with human PSMA-Fc [2], the dissociation constant Kd came to 2.3 nM, the koff was determined as 0.00024 s⁻¹ and the on-rate (kon) turned out to be 96000 M⁻¹ s⁻¹.

B2: AC2717 (PSMA.5 with CD3.23) (bispecific antibody, V domains shown)
VHH: B1 VH with E1Q, F95Y, T121Q
VL: ELVVTQEPSLTVSPGGTVTLTCRSSNGAVTSSNYANWVQQKPGQAPRGLIGGTNKRAPGTPARFSGSLLGGKAALTLSGVQPEDEAVYYCALWYPNLWVFGGGTKLTVL
VH: EVQLLESGGGIVQPGGSLKLSCAASGFTFNTYAMNWVRQAPGKGLEWVARIRSKYNNYATYYADSVKDRFTISRDDSKNTVYLQMNNLKTEDTAVYYCVRHENFGNSYVSWFAHWGQGTLVTVSS
notes: Domains of one TCE chain; also called VHH3
On to B2, for which the dissociation constant Kd in the assay with cyCD3e-Fc is 130 nM; with huCD3e-Fc, 131 nM; with human CD3 epsilon, 12.9 nM; in the assay with human PSMA [3] it was 4.8 nM. Further, the off-rate (koff) in the assay with cyCD3e-Fc came out at 0.0312 s⁻¹; in the assay with huCD3e-Fc it was 0.0289 s⁻¹. Besides, the kon in the assay with cyCD3e-Fc is 240000 M⁻¹ s⁻¹; with huCD3e-Fc, 220000 M⁻¹ s⁻¹.

B3: PSMA.291 (bispecific antibody, V domains shown)
VH: B1 VH with E1Q, V37F, I51M, L59K, F95Y, T121Q
notes: TCE with CD3.23; also called AC3500
B3: in the assay with human PSMA [3], the Kd stood at 2.6 nM.

B4: PSMA.290 (bispecific antibody, V domains shown)
VH: B1 VH with E1Q, M34W, I51M, L59K, F95Y, T121Q
notes: TCE with CD3.23; also called AC3499
For the molecule B4, the Kd in the assay with human PSMA [3] came to 5.5 nM.

B5: PSMA.289 (bispecific antibody, V domains shown)
VH: B1 VH with E1Q, M34F, I51M, L59K, F95Y, T121Q
notes: TCE with CD3.23; also called AC3498
B5 returned a Kd in the assay with human PSMA [3] of 6.2 nM.

B6: AC3471 (PSMA.262 with CD3.23) (bispecific antibody, V domains shown)
VHH: B1 VH with E1Q, M34W, A49G, L59K, F95Y, R101K, T121Q
VL: B2 VL
VH: B2 VH
notes: Domains of one TCE chain; also called CD3.23 WT
Consider B6, for which the Kd with human CD3 epsilon was found to be 13.5 nM; with human PSMA [3], 2.7 nM.

B7: uTCE PSMA-VHH; P01G03R3, CD3.23 (bispecific antibody)
chain: LTGPATSGSETPGTEVQLVESGGGLVQAGGSLRLSCVVSGIAFSPYHMAWYRQAPGKQHEWVAVITTGGTTAYNETVEGRFSISRDNARSTVYLQMNSLKPEDTAVYYCNIYGLSLKWGQGTQVTVSSGGGGSGGGSELVVTQEPSLTVSPGGTVTLTCRSSNGAVTSSNYANWVQQKPGQAPRGLIGGTNKRAPGTPARFSGSLLGGKAALTLSGVQPEDEAVYYCALWYPNLWVFGGGTKLTVLGATPPETGAETESPGETTGGSAESEPPGEGEVQLLESGGGIVQPGGSLKLSCAASGFTFNTYAMNWVRQAPGKGLEWVARIRSKYNNYATYYADSVKDRFTISRDDSKNTVYLQMNNLKTEDTAVYYCVRHENFGNSYVSWFAHWGQGTLVTVSSGTAEAASASGEAGRSANHTPAG
In the assay with human PSMA [4], B7 came in with a Kd of 55.7 nM, a koff of 0.000539 s⁻¹ and a kon of 9670 M⁻¹ s⁻¹.

B8: uTCE PSMA-VHH; P01E02R3, CD3.23 (bispecific antibody)
chain: LTGPATSGSETPGTEVQLVESGGGLVQAGGSLKLSCVANGPTFSTYAMAWFRQAPGKEHEFVAAITGDGDTTNNADSVKGRFTISRDNAKNRVYLQLNSLKPEDTAAYYCAAGVHHTYTIPRLWLYWGQGTQVTVSSGGGGSGGGSELVVTQEPSLTVSPGGTVTLTCRSSNGAVTSSNYANWVQQKPGQAPRGLIGGTNKRAPGTPARFSGSLLGGKAALTLSGVQPEDEAVYYCALWYPNLWVFGGGTKLTVLGATPPETGAETESPGETTGGSAESEPPGEGEVQLLESGGGIVQPGGSLKLSCAASGFTFNTYAMNWVRQAPGKGLEWVARIRSKYNNYATYYADSVKDRFTISRDDSKNTVYLQMNNLKTEDTAVYYCVRHENFGNSYVSWFAHWGQGTLVTVSSGTAEAASASGEAGRSANHTPAG
In the assay with human PSMA [4], B8 yielded an equilibrium dissociation constant (Kd) of 0.6 nM, a koff of 0.000156 s⁻¹ and a kon of 261000 M⁻¹ s⁻¹.

B9: uTCE PSMA-VHH; CB01B02R3, CD3.23 (bispecific antibody)
chain: LTGPATSGSETPGTQVQLVESGGGLVQAGDSLRLSCVTSGRTFDVYAMGWFRQAPGKERELVAAINWSGSNKFHADSVKGRFTISRDNAWKTLSLQMNSLKPEDTAVYFCAASTRLYGTTWYEFNDSDYWGQGTQVTVSSGGGGSGGGSELVVTQEPSLTVSPGGTVTLTCRSSNGAVTSSNYANWVQQKPGQAPRGLIGGTNKRAPGTPARFSGSLLGGKAALTLSGVQPEDEAVYYCALWYPNLWVFGGGTKLTVLGATPPETGAETESPGETTGGSAESEPPGEGEVQLLESGGGIVQPGGSLKLSCAASGFTFNTYAMNWVRQAPGKGLEWVARIRSKYNNYATYYADSVKDRFTISRDDSKNTVYLQMNNLKTEDTAVYYCVRHENFGNSYVSWFAHWGQGTLVTVSSGTAEAASASGEAGRSANHTPAG
notes: also called PSMA.3
With B9, in the assay with human PSMA [4], the Kd came to 1.15 nM, the koff amounted to 0.000205 s⁻¹ and the association rate constant (kon) amounted to 178000 M⁻¹ s⁻¹.

B10: CD3.227 (bispecific antibody, V domains shown)
VH: B2 VH with L5V, K19R, A49G, S53T, Y55R, D68G, N87S
VL: B2 VL
notes: paTCE with PSMA.262; also called AC3658
For the molecule B10, in the assay with cyCD3e-Fc, the equilibrium dissociation constant (Kd) stood at 80 nM, the koff came out at 0.0253 s⁻¹ and the association rate constant (kon) stood at 315000 M⁻¹ s⁻¹. Besides, in the assay with huCD3e-Fc, the Kd was 57 nM, the koff worked out at 0.0196 s⁻¹ and the kon was 342000 M⁻¹ s⁻¹. The Kd with human CD3 epsilon stood at 8.2 nM.

B11: CD3.229 (bispecific antibody, V domains shown)
VH: B2 VH with L5V, K19R, A49G, S53T, Y55T, D68G, N87S
VL: B2 VL
notes: paTCE with PSMA.262; also called AC3660
For B11, the dissociation constant (Kd) with cyCD3e-Fc was 193 nM; with huCD3e-Fc, 162 nM; with human CD3 epsilon it was 11.9 nM. For the same molecule, the off-rate constant (koff) in the assay with cyCD3e-Fc turned out to be 0.0611 s⁻¹; with huCD3e-Fc it was 0.052 s⁻¹. For the same molecule, the on-rate constant (kon) came to 317000 M⁻¹ s⁻¹ with cyCD3e-Fc and 321000 M⁻¹ s⁻¹ with huCD3e-Fc.

B12: CD3.228 (bispecific antibody, V domains shown)
VH: B2 VH with L5V, K19R, N30S, A49G, S53T, Y55R, D68G, N87S
VL: B2 VL
notes: paTCE with PSMA.262; also called AC3659
With B12, in the assay with cyCD3e-Fc, the Kd was 80 nM, the koff stood at 0.0266 s⁻¹ and the on-rate constant (kon) turned out to be 334000 M⁻¹ s⁻¹. Also, in the assay with huCD3e-Fc, the Kd was 69 nM, the koff amounted to 0.0217 s⁻¹ and the association rate constant (kon) came out at 317000 M⁻¹ s⁻¹. Further, the Kd in the assay with human CD3 epsilon is 6.2 nM.

B13: CD3.230 (bispecific antibody, V domains shown)
VH: B2 VH with L5V, K19R, N30S, A49G, S53T, Y55T, D68G, N87S
VL: B2 VL
notes: paTCE with PSMA.262; also called AC3661
B13: the Kd was found to be 216 nM with cyCD3e-Fc, 195 nM with huCD3e-Fc and 17 nM with human CD3 epsilon. Besides, the off-rate constant (koff) with cyCD3e-Fc came to 0.0726 s⁻¹; with huCD3e-Fc, 0.0633 s⁻¹. Moreover, the association rate constant (kon) was 336000 M⁻¹ s⁻¹ with cyCD3e-Fc and 325000 M⁻¹ s⁻¹ in the assay with huCD3e-Fc.
